{
  "source": "paper PMC4731787",
  "about": "“Structural basis for the recognition of two consecutive mutually interacting DPF motifs by the SGIP1 μ homology domain” (Scientific Reports, 2016)",
  "binders": {"B1": {"name": "Eps15-618–654 (domain or fragment, human)", "chain": "GPLGSYDFFQSDPFVGSDPFKDDPFGKIDPFGGDPFKGSDPFA", "notes": "source: E. coli, expressed and purified in the same manner as the SGIP1 µHD"}, "B2": {"name": "FCHo1 µ homology domain (µHD), residues 623 to 889 (domain or fragment, human, UniProt O14526-1 623-889, looked up)", "chain": "QDALPIATAFTEYVHAYFRGHSPSCLARVTGELTMTFPAGIVRVFSGTPPPPVLSFRLVHTTAIEHFQPNADLLFSDPSQSDPETKDFWLNMAALTEALQRQAEQNPTASYYNVVLLRYQFSRPGPQSVPLQLSAHWQCGATLTQVSVEYGYRPGATAVPTPLTNVQILLPVGEPVTNVRLQPAATWNLEEKRLTWRLPDVSEAGGSGRLSASWEPLSGPSTPSPVAAQFTSEGTTLSGVDLELVGSGYRMSLVKRRFATGMYLVSC", "notes": "also called FCHo1 µHD; human FCHo1 µHD (aa623–889); source: E. coli, expressed and purified in the same manner as the SGIP1 µHD"}},
  "details_in_all_cases": "both partners purified",
  "key": {"[1]": {"biological_target": "B2", "test": "ITC; Eps15 fragment in the sample cell, titrated with the SGIP1 or FCHo1 µHD; 50 mM Tris-HCl (pH 8.0), 50 mM NaCl, 25 °C; VP-ITC; two data sets fitted globally (NITPIC, SEDPHAT); single-site or two-site model as named in the quantity"}, "[2]": {"biological_target": "B2", "test": "ITC; µHD, µHD mutant or α-adaptin appendage domain in the sample cell, titrated with the Eps15 fragment or peptide; 50 mM Tris-HCl (pH 8.0), 50 mM NaCl, 25 °C; VP-ITC; two data sets fitted globally (NITPIC, SEDPHAT); single-site model"}, "Eps15-618–654": {"biological_target": "B1", "test": "ITC; Eps15 fragment in the sample cell, titrated with the SGIP1 or FCHo1 µHD; 50 mM Tris-HCl (pH 8.0), 50 mM NaCl, 25 °C; VP-ITC; two data sets fitted globally (NITPIC, SEDPHAT); single-site or two-site model as named in the quantity"}, "[3]": {"biological_target": "T1, SGIP1 μ homology domain (residues 552 to 828) (human, UniProt Q9BQI5-1 552-828)", "T1 construct": "A SeMet-substituted form (E. coli B834(DE3)) was used only for the structure of the domain alone; also called SGIP1 μHD; μHD; source: E. coli BL21-Gold (DE3) or Rosetta2, purified (Glutathione Sepharose, 3C protease cleavage on the column, Superdex 200)", "T1 sequence (looked up)": "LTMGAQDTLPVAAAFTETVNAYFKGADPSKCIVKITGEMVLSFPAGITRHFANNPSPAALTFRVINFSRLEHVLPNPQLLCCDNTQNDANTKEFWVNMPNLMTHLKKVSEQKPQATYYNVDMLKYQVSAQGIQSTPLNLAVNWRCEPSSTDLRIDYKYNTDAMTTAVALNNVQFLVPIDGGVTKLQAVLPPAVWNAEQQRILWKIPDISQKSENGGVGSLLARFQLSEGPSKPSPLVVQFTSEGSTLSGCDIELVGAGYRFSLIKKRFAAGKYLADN", "test": "ITC; VP-ITC, 25 °C, 50 mM Tris-HCl pH 8.0, 50 mM NaCl; for the majority the μHD (SGIP1, its mutants or FCHo1) in the cell, titrated with Eps15 fragments or peptides, for others the reverse (Supplementary Table 2); repeated twice, global fit with SEDPHAT, single-site or two-site model"}, "[4]": {"biological_target": "T2, FCHo1 μ homology domain (residues 623 to 889) (human, UniProt O14526-1 623-889)", "T2 construct": "FCHo1 (FCH domain only 1), human, μ homology domain, residues 623-889; also called FCHo1 μHD; source: E. coli, purified in the same manner as for the SGIP1 μHD", "T2 sequence (looked up)": "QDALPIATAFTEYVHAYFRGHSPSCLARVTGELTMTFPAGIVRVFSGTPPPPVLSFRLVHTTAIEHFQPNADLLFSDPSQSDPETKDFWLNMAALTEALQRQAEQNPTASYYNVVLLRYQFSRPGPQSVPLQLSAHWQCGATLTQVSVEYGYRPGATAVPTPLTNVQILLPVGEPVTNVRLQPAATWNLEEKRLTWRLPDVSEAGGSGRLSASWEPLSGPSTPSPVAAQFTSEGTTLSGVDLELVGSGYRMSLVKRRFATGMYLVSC", "test": "ITC; VP-ITC, 25 °C, 50 mM Tris-HCl pH 8.0, 50 mM NaCl; for the majority the μHD (SGIP1, its mutants or FCHo1) in the cell, titrated with Eps15 fragments or peptides, for others the reverse (Supplementary Table 2); repeated twice, global fit with SEDPHAT, single-site or two-site model"}},
  "data": [
    {"binder": "B1", "values": [
      {"measurement": "Kd", "setting": "[1]", "value": 190, "unit": "nM"},
      {"measurement": "Kd", "setting": "[2]", "value": 270, "unit": "nM"},
      {"measurement": "stoichiometry N", "setting": "[2]", "value": 0.59}
    ]},
    {"binder": "B2", "values": [
      {"measurement": "stoichiometry N", "setting": "Eps15-618–654", "value": 0.7}
    ]},
    {"binder": "DFFQSDPFVGSDPFKDDPFGKIDPFGGDPFKGSDPFA (domain or fragment, human, UniProt P42566-1 618-654, looked up, also called 37-residue region containing six consecutive DPF motifs; source: E. coli, purified in the same manner as for the SGIP1 μHD)", "values": [
      {"measurement": "Kd of the high-affinity site (two-site model)", "setting": "[3]", "value": "~65", "unit": "nM"},
      {"measurement": "binding result", "setting": "[4]", "value": "binds"}
    ]}
  ]
}
